Measurements reported in doi:10.1101/2025.02.17.637997, “Phosphorylation-State Modulated Binding of HSP70: Structural Insights and Compensatory Protein Engineering” (bioRxiv, 2025).
Entries after “also recorded” stand apart in the source; their conditions may differ. Square brackets hold non-standard residues; d marks the D form. Ends that are not written are not given here. * marks the point of attachment. FITC = O=C1OC2(c3ccc(O)cc3Oc3cc(O)ccc32)c2ccc(NC(=S)*)cc21; Biotin = O=C1N[C@H]2[C@H](CS[C@H]2CCCCC(=O)*)N1; pT = C[C@@H](OP(=O)(O)O)[C@H](N)C(=O)O; Ahx = NCCCCCC(=O)O

What was measured:
[1] = tested on: HSP70 steady-state levels in HEK-293 cells; experiment: Cycloheximide chase of HSP70 steady-state levels, HEK-293; assay type: cell-based; conditions: Flag immunoblot, representative, Fig. S1
Description: (§1) HEK293 and COS-7 cells were acquired from the UNC Lineberger Comprehensive Cancer Center Tissue Culture Facility. Cultures were maintained in Dulbecco’s Modified Eagle Medium with 10% fetal bovine serum at 37 °C and 5% CO2. Using the manufacturers’ instructions, X-tremeGENE 9 was used to transfect cells with plasmid DNA except for NanoBiT constructs, in which case we used Lipofectamine 3000 (Thermo Fisher Scientific). Where indicated, twenty-four hours post-transfection, cells were treated with 20 μM MG-132 (Selleck Chemicals) for 6 h or 100 μM cycloheximide (Sigma-Aldrich) for the stated duration.
(§2) Samples were collected in a lysis buffer composed of 50 mM Tris-HCl (pH 7.4), 150 mM NaCl, 2 mM EDTA, and 1% Triton X-100, supplemented with 1X Halt protease and phosphatase inhibitor (Thermo Scientific). The samples were then sonicated and combined with Laemmli sample buffer (Bio-Rad). The lysates were resolved on 4–15% TGX Stain-Free gels (Bio-Rad) and transferred to PVDF membranes (Bio-Rad). The membranes were blocked in 5% milk and incubated with primary antibodies (Table S3) overnight at 4°C. Following this, HRP-conjugated secondary antibodies (Cell Signaling Technology) were applied. Detection was performed using Lumigen ECL Ultra (Lumigen, tma-100), and the blots were imaged with the ChemiDoc Imaging System (BioRad).

[2] = target: T1, recombinant full-length CHIP-WT (UniProt Q9UNE7 1-303); experiment: FP
T1 chain: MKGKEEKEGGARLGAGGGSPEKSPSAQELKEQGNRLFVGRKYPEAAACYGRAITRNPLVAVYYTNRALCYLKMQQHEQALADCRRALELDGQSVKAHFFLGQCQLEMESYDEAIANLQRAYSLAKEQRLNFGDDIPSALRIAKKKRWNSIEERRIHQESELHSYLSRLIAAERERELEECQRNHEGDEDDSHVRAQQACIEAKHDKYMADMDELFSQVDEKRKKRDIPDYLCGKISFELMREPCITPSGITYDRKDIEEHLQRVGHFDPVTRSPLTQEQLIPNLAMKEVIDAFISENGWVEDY

[3] = target: recombinant full-length CHIP-G132N (UniProt Q9UNE7 1-303, G132N); experiment: FP
[4] = target: T2, recombinant full-length CHIP-WT (UniProt Q9UNE7 1-303); experiment: fluorescence polarisation; 20 nM N-terminally FITC-labelled peptide, recombinant CHIP constructs at increasing concentrations, 30 minutes at room temperature; one site/total binding fit with Bmax constrained to 100; conditions: both partners purified
T2 sequence (looked up): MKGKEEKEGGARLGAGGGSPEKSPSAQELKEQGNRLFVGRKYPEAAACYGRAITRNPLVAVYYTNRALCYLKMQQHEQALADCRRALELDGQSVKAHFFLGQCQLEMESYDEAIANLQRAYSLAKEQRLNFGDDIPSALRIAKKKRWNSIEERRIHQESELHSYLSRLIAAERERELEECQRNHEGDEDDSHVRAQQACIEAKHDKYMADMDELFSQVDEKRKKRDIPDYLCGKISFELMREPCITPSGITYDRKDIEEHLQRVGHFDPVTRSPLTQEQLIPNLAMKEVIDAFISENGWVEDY

[5] = target: T3, recombinant full-length CHIP-G132N (UniProt Q9UNE7 1-303, G132N); experiment: as above; conditions: both partners purified
T3 construct: CHIP, full-length recombinant protein with G132N
T3 sequence (looked up): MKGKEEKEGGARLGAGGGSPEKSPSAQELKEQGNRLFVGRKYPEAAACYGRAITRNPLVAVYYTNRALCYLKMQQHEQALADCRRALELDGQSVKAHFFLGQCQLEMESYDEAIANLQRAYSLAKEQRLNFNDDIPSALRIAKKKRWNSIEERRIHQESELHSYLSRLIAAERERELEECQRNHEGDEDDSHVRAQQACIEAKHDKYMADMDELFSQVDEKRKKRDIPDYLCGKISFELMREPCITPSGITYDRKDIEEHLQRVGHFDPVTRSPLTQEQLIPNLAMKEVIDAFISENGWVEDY

CHIP-TPR (21–154) [6] = target: T4, CHIP-TPR (21–154) (UniProt Q9UNE7 21-154); experiment: as above; conditions: both partners purified
T4 construct: also called extended TPR domain of CHIP
T4 sequence (looked up): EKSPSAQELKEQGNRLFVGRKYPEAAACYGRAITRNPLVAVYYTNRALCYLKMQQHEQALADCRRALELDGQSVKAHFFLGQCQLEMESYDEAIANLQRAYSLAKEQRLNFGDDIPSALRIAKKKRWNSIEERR

CHIP-TPR N65S = target: T5, CHIP-TPR N65S (UniProt Q9UNE7 21-154, N65S); experiment: BLI; BLItz, biotin peptides loaded on streptavidin sensors, TPR protein constructs at 1 to 25 μM; 20 mM HEPES, 150 mM NaCl, 5 mM β-mercaptoethanol, pH 7.2; Kd=koff/kon; conditions: both partners purified
T5 construct: CHIP, extended TPR domain, residues 21-154, with N65S; control of the BLI experiment; also called CHIP-N65S
T5 sequence (looked up): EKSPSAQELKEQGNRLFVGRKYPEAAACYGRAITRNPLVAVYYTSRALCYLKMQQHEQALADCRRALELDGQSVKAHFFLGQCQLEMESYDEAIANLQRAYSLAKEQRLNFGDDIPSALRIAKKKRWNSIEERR

CHIP-TPR G132S = target: T6, CHIP-TPR G132S (UniProt Q9UNE7 21-154, G132S); experiment: as above; conditions: both partners purified
T6 construct: CHIP, extended TPR domain, residues 21-154, with G132S; site modification control of the BLI experiment; also called CHIP-G132S
T6 sequence (looked up): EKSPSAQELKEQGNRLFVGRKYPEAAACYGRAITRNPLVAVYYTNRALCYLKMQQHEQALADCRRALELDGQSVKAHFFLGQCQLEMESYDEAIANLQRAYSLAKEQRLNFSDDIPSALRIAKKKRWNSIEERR

CHIP-TPR (21–154) [7] = target: T4, CHIP-TPR (21–154); experiment: crystal structure; CHIP-TPR co-crystallised with peptide at a 3:1 peptide:protein ratio, sitting drop vapor diffusion at room temperature; 0.2 M lithium sulfate, 0.1 M Tris-HCl, pH 8.5, 30% PEG 4000; conditions: both partners purified
CHIP-G132N = target: T7, CHIP-G132N (Homo sapiens, UniProt Q9UNE7, G132N); experiment: Biolayer interferometry, CHIP-G132N TPR; assay type: binding; conditions: BLI; CHIP-G132N TPR; Fig. 2E
T7 construct: Recombinant CHIP-TPR constructs were recombinantly expressed using the pHis//2 CHIP-TPR (21–154) plasmid; His; made in house
T7 sequence (Q9UNE7 21-154 G132N): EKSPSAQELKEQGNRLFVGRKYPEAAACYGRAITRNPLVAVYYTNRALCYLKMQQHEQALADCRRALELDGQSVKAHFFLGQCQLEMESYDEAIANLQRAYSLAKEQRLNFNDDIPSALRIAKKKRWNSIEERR
Description: Bio-layer interferometry measured peptide binding using a BLItz instrument (FortéBio, Sartorius) with streptavidin (SA) sensors. Biotin-EEVD and biotin-pEEVD were solubilized in 20 mM HEPES, 150 mM NaCl, pH 7.0. Affinity measurements were made using the advanced kinetic protocol within the BLItz Pro system software. Biosensors were hydrated for ten minutes in assay buffer comprising 20 mM HEPES, 150 mM NaCl, 5 mM β-mercaptoethanol, pH 7.2. For each affinity measurement, a new, hydrated biosensor was placed on the BLItz tip, and the “Initial Baseline” step was completed by incubation for 30 seconds in 500 μl assay buffer in an opaque black microcentrifuge tube (Argos Technologies). Peptides were loaded during the “Loading Step” by incubating the tip in 4 μl of either peptide for 60 seconds. The “Baseline step” was then conducted by incubation for 30 seconds in 500 μl assay buffer in an opaque black microcentrifuge tube. The “Association step” was performed by incubating the tip in 4 μl of the appropriate TPR protein construct, at protein concentrations of 1 to 25 μM, in assay buffer in an opaque black microcentrifuge tube for 120 seconds. […] Affinities (Kd) were calculated by the BLItz Pro software as Kd=koff/kon, where koff and kon were determined by individual fits to the “dissociation step” and “association step,” respectively, for each run.

LgBiT-HSP70 T636A/D = experiment: NanoBiT live-cell interaction, HEK-293, CHIP variants with LgBiT-HSP70; assay type: cell-based; conditions: compared with CHIP-WT, Fig. 1E
Description: as §1
NanoBiT Protein: Protein Interaction System (Promega) was used to measure protein-protein interaction data following the manufacturer’s instructions. As previously described, LgBiT-HSP70 and SmBiT-CHIP construct interactions were used as positive controls ([22]). Twenty-four hours post-transfection, the cells were collected, replated in 96-well clear bottom white-sided tissue culture plates, and maintained at 37 °C and 5% CO2 for 45 min. Nano-Glo Live Cell Reagent (Promega) was added, and luminescence was measured using a CLARIOstar microplate reader over 20 minutes. The total area under the maximum luminescence curve was quantified and used to compare changes in HSP70-CHIP interactions relative to the WT-WT conditions.

HSP70 = experiment: Co-immunoprecipitation of CHIP variants with HSP70, COS-7; assay type: cell-based; conditions: Co-IP of MYC-CHIP, Fig. 1I
Description: as §2
Ezview™ Red Anti-c-Myc Affinity Gel Beads (Sigma-Aldrich) were used for co-immunoprecipitation of myc-tagged proteins. Proteins were eluted via boiling before western blot analysis.

HSC70 = experiment: Cell-free ubiquitination of HSC70 by CHIP; assay type: biochemical, human; conditions: 100 nM Uba1, 1 μM UBE2D2, 200 nM Hsc70, 100 μM Ub, 1 μM CHIP, pH 8.0, 15 min, room temperature; three experiments; p = 0.0774; Fig. 1K
Description: Ubiquitination assays were conducted using recombinant human HSC70, fluorescently tagged on its N-terminus. All assay components except ubiquitin were premixed on ice in a BSA-containing buffer (20 mM HEPES, pH 8.0; 200 mM NaCl; 0.5 mg/mL BSA). Reactions were initiated by adding ubiquitin and were allowed to proceed at room temperature unless specified otherwise. The reactions contained a final concentration of 100 nM Uba1, 1 μM UBE2D2, 200 nM Hsc70, 100 μM Ub, 5 mM MgCl2-ATP, and 1 μM CHIP. The reactions proceeded for 15 minutes before being quenched with SDS loading buffer. The quenched samples were separated by molecular weight via SDS-PAGE in non-reducing conditions using GenScript SurePAGE 4–12% gels. The CHIP-dependent ubiquitination of Hsc70 was visualized and quantified through fluorescent scanning on an Amersham Typhoon 5.

HSP70-T636A: phospho-null version of HSP70
percent change of HSP70 level from time 0 ([1]; cycloheximide +MG132, 6 h (column from layout)): +31%
percent change of HSP70 level from time 0 ([1]; cycloheximide, 6 h, without MG132 (column from layout)): -84%

B1: N-FITC-Ahx-GSGP(pT)IEEVD (peptide)
peptide: {FITC-Ahx}-GSGP[pT]IEEVD
notes: tracer of the fluorescence polarisation assay; also called pEEVD; phosphorylated EEVD peptide; source: synthetic peptide (Lifetein or Genscript)
Kd [2]: 46 µM
Kd [3]: 96 µM
binding result [4]: binds
binding result [5]: binds
binding result (CHIP-TPR (21–154) [6]): binds

B2: amino-terminal biotin-labeled HSP70 tail peptide biotin-GSGSGPTIEEVD (peptide)
peptide: Biotin-GSGSGPTIEEVD
notes: C-terminal tail of HSP70; loaded on streptavidin sensors for BLI; also called biotin-EEVD; source: synthetic peptide, bought: Lifetein
binding result (CHIP-TPR N65S): binds
binding result (CHIP-TPR G132S): binds

B3: amino-terminal biotin-labeled pT-HSP70 tail peptide biotin-GSGSGP(pT)IEEVD (peptide)
peptide: Biotin-GSGSGP[pT]IEEVD
notes: loaded on streptavidin sensors for BLI; also called biotin-pEEVD; pEEVD; source: synthetic peptide, bought: Lifetein
binding result (CHIP-TPR N65S): binds
binding result (CHIP-TPR G132S): binds

B4: phosphorylated HSP(C)70 peptide GP(pT)IEEVD (peptide)
peptide: GP[pT]IEEVD
notes: used for co-crystallisation with CHIP-TPR; also called pEEVD; pT-HSP70 peptide; source: synthetic peptide (Lifetein or Genscript)
binding result (CHIP-TPR (21–154) [7]): binds

B5: unphosphorylated HSP(C)70 peptide GPTIEEVD (peptide)
peptide: GPTIEEVD
notes: C-terminal tail of HSP70 (T636 is the third residue); used for co-crystallisation with CHIP-TPR; also called HSP70 peptide; HSP70 tail; source: synthetic peptide (Lifetein or Genscript)
binding result (CHIP-TPR (21–154) [7]): binds

B6: CHIP-G132N: engineered CHIP variant to restore binding affinity to phosphorylated HSP70 (protein)
chain: MKGKEEKEGGARLGAGGGSPEKSPSAQELKEQGNRLFVGRKYPEAAACYGRAITRNPLVAVYYTNRALCYLKMQQHEQALADCRRALELDGQSVKAHFFLGQCQLEMESYDEAIANLQRAYSLAKEQRLNFNDDIPSALRIAKKKRWNSIEERRIHQESELHSYLSRLIAAERERELEECQRNHEGDEDDSHVRAQQACIEAKHDKYMADMDELFSQVDEKRKKRDIPDYLCGKISFELMREPCITPSGITYDRKDIEEHLQRVGHFDPVTRSPLTQEQLIPNLAMKEVIDAFISENGWVEDY
effect on binding affinity towards phosphorylated EEVD tail (CHIP-G132N): rescued the binding affinity
luminescence of CHIP variant with HSP70-T636A/D (LgBiT-HSP70 T636A/D): lower luminescence
co-precipitation of HSP70 by CHIP variant (HSP70): did not override the effect of the HSP70-T636D phosphomimetic
ubiquitination of HSC70 (HSC70): not different; also recorded: trend towards decreased ligase activity

B7: CHIP-WT: wild-type CHIP, E3 ligase co-chaperone (protein)
chain: MKGKEEKEGGARLGAGGGSPEKSPSAQELKEQGNRLFVGRKYPEAAACYGRAITRNPLVAVYYTNRALCYLKMQQHEQALADCRRALELDGQSVKAHFFLGQCQLEMESYDEAIANLQRAYSLAKEQRLNFGDDIPSALRIAKKKRWNSIEERRIHQESELHSYLSRLIAAERERELEECQRNHEGDEDDSHVRAQQACIEAKHDKYMADMDELFSQVDEKRKKRDIPDYLCGKISFELMREPCITPSGITYDRKDIEEHLQRVGHFDPVTRSPLTQEQLIPNLAMKEVIDAFISENGWVEDY
ubiquitination of HSC70 (HSC70): not different
